Results on eight molecules are retold here after patent US20150315278A1 (Chugai, published 2015).

For assay [1], the target named is T1, soluble GPC3 core polypeptide (Homo sapiens (Human), UniProt P51654 25-563).
T1 construct: Immobilized on the ELISA plate at 1 ug/mL; also called glypican 3 antigen; glypican 3
As to the kind of experiment: competitive ELISA against biotinylated H0L0 on immobilized soluble GPC3 core (FIG. 4). On the procedure:
(§1) The H0L0 antibody and its point mutation-modified antibodies purified in (1) was evaluated by competitive ELISA. 100 μL of the soluble GPC3 core polypeptide (SEQ ID NO: 13) at 1 μg/mL was added to each well of a 96-well plate. The soluble GPC3 core polypeptide was immobilized on the plate by allowing the plate to stand overnight at 4° C. The soluble GPC3 core polypeptide immobilized on the plate was washed 3 times with a washing buffer using Skan WASHER400 (Molecular Devices); and blocked with 200 μL blocking buffer at 4° C. for at least 30 min. The blocked plate on which soluble GPC3 core polypeptide was immobilized was then washed 3 times with washing buffer using the Skan WASHER400. Subsequently, each well of the plate received 200 μL of a mixture containing 100 μL of biotinylated H0L0 antibody (final concentration=0.3 μg/mL) and 100 μL of the H0L0 antibody or its point mutation-modified antibody (at various concentrations). The H0L0 antibody was biotinylated using Biotin Labeling Kit (Roche) according to the instructions provided with the kit. The plate was left stand for 1 hour at room temperature, then washed 5 times with washing buffer using the Skan WASHER400 (Molecular Devices). […] The absorbance at 405 nm of the reaction solution in each well was measured using Benchmark Plus (BIO-RAD), with the control absorbance at 655 nm.
For orientation: In an ELISA, binding on a coated surface is turned into a signal by an enzyme label.

Assay [2] concerns the target T1, soluble GPC3 core polypeptide. As to the kind of experiment: competitive ELISA against biotinylated H0L0 on immobilized soluble GPC3 core (FIG. 14). On the procedure:
The H0L0 antibody and its point mutation-modified antibodies purified in (1) was evaluated by competitive ELISA. 100 μL of the soluble GPC3 core polypeptide (SEQ ID NO: 13) at 1 μg/mL was added to each well of a 96-well plate. The soluble GPC3 core polypeptide was immobilized on the plate by allowing the plate to stand overnight at 4° C. The soluble GPC3 core polypeptide immobilized on the plate was washed 3 times with a washing buffer using Skan WASHER400 (Molecular Devices); and blocked with 200 μL blocking buffer at 4° C. for at least 30 min. The blocked plate on which soluble GPC3 core polypeptide was immobilized was then washed 3 times with washing buffer using the Skan WASHER400. Subsequently, each well of the plate received 200 μL of a mixture containing 100 μL of biotinylated H0L0 antibody (final concentration=0.3 μg/mL) and 100 μL of the H0L0 antibody or its point mutation-modified antibody (at various concentrations). The H0L0 antibody was biotinylated using Biotin Labeling Kit (Roche) according to the instructions provided with the kit. The plate was left stand for 1 hour at room temperature, then washed 5 times with washing buffer using the Skan WASHER400 (Molecular Devices). 100 μL goat anti-streptavidin alkaline phosphatase (ZYMED), diluted 20,000× with substrate buffer, was added to each well, and the resulting plate was left stand for 1 hour at room temperature, and then washed 5 times with washing buffer using the Skan WASHER400. Phosphatase Substrate (Sigma) was prepared at 1 mg/mL in the substrate buffer, added at 100 μL per well for 1 hour. The absorbance at 405 nm of the reaction solution in each well was measured using Benchmark Plus (BIO-RAD), with the control absorbance at 655 nm.
The binding activity to the antigen of each constant region pI modified antibody was measured using the method described in Example 1 (FIG. 14).

The target is the same in assay [3]. As to the kind of experiment: competitive ELISA against biotinylated H0L0 on immobilized soluble GPC3 core (FIG. 10). On the procedure:
as §1, with “kit.” for “kit. The plate was left stand for 1 hour at room temperature, then washed 5 times with washing buffer using the Skan WASHER400 (Molecular Devices).”
The binding activity to the antigen glypican 3 of each point mutation pI modified antibody was measured using the method described in Example 1 (FIG. 10).

The target is the same in assay [4]. As to the kind of experiment: competitive ELISA against biotinylated H0L0 on immobilized soluble GPC3 core (FIG. 5). On the procedure: as §1
For assay [5] the target is unchanged. As to the kind of experiment: competitive ELISA against biotinylated H0L0 on immobilized soluble GPC3 core (FIG. 6). On the procedure: as §1

Numbering of substitutions follows the chain as printed. Names and notes keep the numbering of the source.

T1 sequence (P51654 other isoform, or with tags, fused parts or gaps limits assumed): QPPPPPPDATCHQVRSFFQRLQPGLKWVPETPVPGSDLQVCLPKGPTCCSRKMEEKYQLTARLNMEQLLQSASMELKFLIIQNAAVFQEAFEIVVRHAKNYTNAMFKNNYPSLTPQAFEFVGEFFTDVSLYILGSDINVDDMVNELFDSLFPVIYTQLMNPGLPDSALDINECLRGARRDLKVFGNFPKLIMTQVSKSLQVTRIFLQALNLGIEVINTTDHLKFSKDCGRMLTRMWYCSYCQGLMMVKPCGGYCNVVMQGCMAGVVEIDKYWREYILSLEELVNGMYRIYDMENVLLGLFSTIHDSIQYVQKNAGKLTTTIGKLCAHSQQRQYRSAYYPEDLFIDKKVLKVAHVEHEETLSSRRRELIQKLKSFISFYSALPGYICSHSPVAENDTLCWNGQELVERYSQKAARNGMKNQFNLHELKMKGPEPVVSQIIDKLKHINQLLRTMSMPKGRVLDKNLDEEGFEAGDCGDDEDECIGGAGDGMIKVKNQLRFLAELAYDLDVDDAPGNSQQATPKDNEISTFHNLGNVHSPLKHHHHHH

B1: H15L4 antibody (antibody, V domains shown)
VH: QVQLVQSGAEVKKPGASVKVSCKASGYTFTDYEMHWIRQPPGQGLEWIGAIDPKTGDTAYSQKFKGRVTLTADKSTSTAYMELSSLTSEDTAVYYCTRFYSYTYWGQGTLVTVSS
VL: DIVMTQSPLSLPVTPGEPASISCRSSQSLVHSNRNTYLHWYQQKPGQAPRLLIYKVSNRFSGVPDRFSGSGSGTDFTLKISRVEAEDVGVYYCSQNTHVPPTFGQGTKLEIK
notes: Point-mutation modified form of H0L0
In the case of B1, in assay [1], the binding result was “binds”.

B2: pH7pL16 antibody (antibody, IgG1, V domains shown)
VH: B1 VH with K19T, Q43E, Q62E, K63S, K65Q, G66D
VL: B1 VL with R24Q, S25A, Q27E, Q42L, A48S, R50Q, L109V, K112E
notes: Variable regions only
For the molecule B2, the binding result in assay [2] was “binds”.

B3: H0M85L0 antibody (antibody, human IgG1, V domains shown)
VH: B1 VH with I37V, P40A, I48M, I51L
VL: B1 VL with I2V, Q42L, A48S, R50Q
notes: its constant region is not specified
On to B3, for which the binding result in assay [2] is reported as “binds”.

B4: pH7M85pL16 antibody (antibody, human IgG1, V domains shown)
VH: B1 VH with K19T, Q43E, Q62E, K63S, K65Q, G66D
VL: B1 VL with R24Q, S25A, Q27E, Q42L, A48S, R50Q, L109V, K112E
notes: its constant region is not specified; also called pH7M85pL6 [sic]
For B4, in assay [2], the binding result is listed as “binds”.

B5: humanized H0L0 antibody (antibody, V domains shown)
VH: B1 VH with I37V, P40A, I48M, I51L
VL: B1 VL with I2V, Q42L, A48S, R50Q
notes: the light chain constant region is not specified; also called humanized GC33 antibody
With B5, the binding result in assay [2] was “binds”.

B6: pH7pL14 antibody (antibody, V domains shown)
VH: B1 VH with K19T, Q43E, Q62E, K63S, K65Q, G66D
VL: B1 VL with R24Q, S25A, Q27E, Q42L, A48S, R50Q
Turning to B6, in assay [3], the binding result was “binds”.

B7: Hspu2.2Lspu2.2 (Hu2.2Lu2.2) antibody (antibody, V domains shown)
VH: B1 VH with Q43K, D52N, Q107R
VL: B1 VL with E17Q, S25A, Q27R, Q105R
notes: Raised-pI variant; Hspu2.2 = H15 + Q43K, D52N, Q107R; Lspu2.2 = L4 + E17Q, Q27R, Q105R, S25A
B7: the binding result in assay [4] is “binds”.

B8: Hspd1.8Lspd1.6 (Hd1.8Ld1.6) antibody (antibody, V domains shown)
VH: B1 VH with K19T, Q43E, K63S, K65Q, G66D
VL: B1 VL with S25A, Q27E, K79T, R82S, V83L, E84Q
notes: Lowered-pI variant; Hspd1.8 = H15 + K19T, Q43E, K63S, K65Q, G66D; Lspd1.6 = L4 + Q27E, KISRVE(79-84) to TISSLQ, S25A
Take B8: the binding result in assay [5] is listed as “binds”.
